Test results as given in publication PMC6420115.

These substances were tested against full length PfCSP (NF54 strain) (Plasmodium falciparum (NF54 strain)) (UniProt P19597) (assay: not given). Details: not given.
Chain of full length PfCSP (NF54 strain) (Plasmodium falciparum (NF54 strain)) (P19597 19-374): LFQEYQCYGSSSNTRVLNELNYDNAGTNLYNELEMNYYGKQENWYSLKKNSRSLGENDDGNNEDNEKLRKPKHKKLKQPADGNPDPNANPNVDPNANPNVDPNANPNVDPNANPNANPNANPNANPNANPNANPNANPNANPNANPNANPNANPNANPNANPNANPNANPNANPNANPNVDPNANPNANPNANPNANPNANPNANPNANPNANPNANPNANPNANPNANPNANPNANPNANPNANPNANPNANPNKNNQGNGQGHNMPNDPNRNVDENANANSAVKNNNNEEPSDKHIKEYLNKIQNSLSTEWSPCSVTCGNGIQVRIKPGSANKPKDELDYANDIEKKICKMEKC

Substance	other
2163 IgG (germline antibody 2163)	0.2 µg/mL
2163_H.S31_Nmut IgG (antibody)	0.12 µg/mL
2163_H.V50_Imut IgG (antibody)	0.16 µg/mL
1210_NS IgG (1210_H.K56_Nrev_K.N93_Srev) (antibody)	0.17 µg/mL
1210_H.V50_Imut IgG (antibody)	0.16 µg/mL
1210_H.K56_Nrev IgG (antibody)	0.14 µg/mL
1210_H.N31_Srev IgG (antibody)	0.14 µg/mL
2163_KN IgG (2163_H.N56_Kmut_K.S93_Nmut) (antibody)	0.21 µg/mL

What follows are substances tested against minimal NANP3 peptide (assay: SPR). Details: parent: est. 2.1e-6 M; read off a plot.

Substance	Kd
2163 IgG (germline antibody 2163) H:S31N	1.5 µM
2163 IgG (germline antibody 2163) H:V50I	0.13 µM
2163 IgG (germline antibody 2163) H:N56K; K:S93N	2.6 µM
2163 IgG (germline antibody 2163) H:N56K	2.6 µM
